Assay results as given in patent US20240101668A1 (WUGEN, published 2024).

Columns and labels:
[1] = biological target: T1, huFLT3-T227 stably expressed on Ramos cells (human, UniProt P36888 27-993); test: FACS on cells
T1 construct: whole, on cells; also called FLT3 WT

[2] = biological target: T2, huFLT3-M227 stably expressed on Ramos cells (human, UniProt P36888 27-993); test: FACS on cells
T2 construct: whole, on cells; also called FLT3 Mutant

FACS geometric mean fold change over Jurkat parental [1]	FACS geometric mean fold change over Jurkat parental [2]	Binder
> 30 fold	> 30 fold	Polypeptide No. 242 (scFv, V domains shown, scFv) VH: QVQLVQSGAEVKKPGSSVKVSCKASGGTFSSATISWVRQAPGQGLEWMGGIIPMFGTANYAQKFQGRVTITADESTSTAYMELSSLRSEDTAVYYCARDAYGDSTWGQGTLVTVSS VL: EIVMTQSPATLSVSPGERATLSCRASESVSSALAWYQQKPGQAPRLLIYGASTRATGIPARFSGSGSGTEFTLTISSLQSEDFAVYYCQQYGNSVTFGGGTKVEIKR
2 to 10 fold	2 to 10 fold	Polypeptide No. 249 (scFv, V domains shown, scFv) VH: QVQLVQSGAEVKKPGASVKVSCKASGYTFTSDGISWVRQAPGQGLEWMGWMNPNSGNAGYAQKFQGRVTMTRDTSTSTVYMELSSLRSEDTAVYYCATAVAGTDAFDIWGQGTMVTVSS VL: EIVMTQSPATLSVSPGERATLSCRASQSIGNNLKAWYQQKPGQAPRLLIYDTSAHTTGIPARFSGSGSGTEFTLTISSLQSEDFAVYYCQHYGNSLTFGQGTKVEIK
10 to 30 fold	2 to 10 fold	Polypeptide No. 246 (scFv, V domains shown, scFv) VH: QVQLVQSGAEVKKPGSSVKVSCKASGGTFTSYFMHWVRQAPGQGLEWMGGIIPMFGAPVYAQDFQGRVTITADESTSTAYMELSSLRSEDTAVYYCAAGLDFWSGPDNYYMDVWGKGTTVTVSS VL: DIQMTQSPSSLSASVGDRVTITCQATQDISNYLNWYQQKPGKAPKLLIYGASNLPSGVPSRFSGSGSGTDFTLTISSLQPEDFATYYCQQSYSDLLTFGPGTKVDIKR
> 30 fold	> 30 fold	Polypeptide No. 240 (scFv, V domains shown, scFv) VH: QVQLVQSGAEVKKPGASVKVSCKASGYTFTSYYMHWVRQAPGQGLEWMGIINPSSGSTTYALKFQGRVTMTRDTSTSTVYMELSSLRSEDTAVYYCARGLGKSAIDYWGQGTLVTVSS VL: not shown
> 30 fold	> 30 fold	Polypeptide No. 222 (scFv, V domains shown, scFv) VH: QVQLVQSGAEVKKPGASVKVSCKASGYSFTAYYMHWVRQAPGQGLEWMGIINPSGGSTSYAQKFQGRVTMTRDTSTSTVYMELSSLRSEDTAVYYCARVAGINGEMAYWGQGTLVTVSS VL: DIQMTQSPSSLSASVGDRVTITCRASQDISNYLAWYQQKPGKAPKLLIYAASTLQSGVPSRFSGSGSGTDFTLTISSLQPEDFATYYCQQSYRTPYTFGQGTKVEIKR
2 to 10 fold	2 to 10 fold	Polypeptide No. 248 (scFv, V domains shown, scFv) VH: QVQLVQSGAEVKKPGASVKVSCKASGYTFTGYYMHWVRQAPGQGLEWMGVINPNGGSISYAQKFQGRVTMTRDTSTSTVYMELSSLRSEDTAVYYCAREGWFGEDGMDVWGQGTTVTVSS VL: DIQMTQSPSSLSASVGDRVTITCRASQDLDRYLAWYQQKPGKAPKLLIYAASSLQTGVPSRFSGSGSGTDFTLTISSLQPEDFATYYCQQYYSTPYTFGQGTKLEIKR
> 30 fold	> 30 fold	Polypeptide No. 223 (scFv, V domains shown, scFv) VH: QVQLVQSGAEVKKPGASVKVSCKASGYTFTNSFIHWVRQAPGQGLEWMGIINPSGGSTSYAQKFQGRVTMTRDTSTSTVYMELSSLRSEDTAVYYCAKALERRYYYGMDVWGQGTTVTVSS VL: DIQMTQSPSSLSASVGDRVTITCRASQGISNYLAWYQQKPGKAPKLLIYDGSNLETGVPSRFSGSGSGTDFTLTISSLQPEDFATYYCQQSYSTPLTFGQGTKVEIKR
10 to 30 fold	10 to 30 fold	Polypeptide No. 241 (scFv, V domains shown, scFv) VH: QVQLVQSGAEVKKPGASVKVSCKASGYTFTRHYVHWVRQAPGQGLEWMGIINPSGGSTSYAQKFQGRVTMTRDTSTSTVYMELSSLRSEDTAVYYCARSYHHYYYGMDVWGQGTTVTVSS VL: DIQMTQSPSSLSASVGDRVTITCRASQSISNYLAWYQQKPGKAPKLLIYAASSLQGGVPSRFSGSGSGTDFTLTISSLQPEDFATYYCQQSYSTPWTFGQGTKVEIKR
> 30 fold	> 30 fold	Polypeptide No. 231 (scFv, V domains shown, scFv) VH: QVQLVQSGAEVKKPGASVKVSCKASGYTFTSYYIHWVRQAPGQGLEWMGLINPSGGSTTYAQSFQGRVTMTRDTSTSTVYMELSSLRSEDTAVYYCARGLGWGVVVPAAELDYWGQGTLVTVSS VL: DIQMTQSPSSLSASVGDRVTITCRASQSISTYLNWYQQKPGKAPKLLIYAASNLQSGVPSRFSGSGSGTDFTLTISSLQPEDFATYYCQQSYSSPLTFGPGTKVDIKR
> 30 fold	> 30 fold	Polypeptide No. 244 (scFv, V domains shown, scFv) VH: QVQLVQSGAEVKKPGASVKVSCKASGYTFTSYYMHWVRQAPGQGLEWMGRINPSGGSTSYAQSFQGRVTMTRDTSTSTVYMELSSLRSEDTAVYYCARVPGLYGGAIDYWGQGTLVTVSS VL: DIQMTQSPSSLSASVGDRVTITCRASQDIRNDLGWYQQKPGKAPKLLIYAASSLQSGVPSRFSGSGSGTDFTLTISSLQPEDFATYYCQQSYSSPFTFGQGTKVEIKR
> 30 fold	> 30 fold	Polypeptide No. 229 (scFv, V domains shown, scFv) VH: QVQLVQSGAEVKKPGASVKVSCKASGYTFTNYYMHWVRQAPGQGLEWMGIINPSGGSTSYAQKFQGRVTMTRDTSTSTVYMELSSLRSEDTAVYYCARGVGYSGYGADLWGRGTLVTVSS VL: DIQMTQSPSSLSASVGDRVTITCRASQGISNSLAWYQQKPGKAPKLLIYAASSLQSGVPSRFSGSGSGTDFTLTISSLQPEDFATYYCQQSHSPPYTFGQGTKLEIKR
2 to 10 fold	2 to 10 fold	Polypeptide No. 253 (scFv, V domains shown, scFv) VH: QVQLVQSGAEVKKPGSSVKVSCKASGYTFTTYFMHWVRQAPGQGLEWMGGIVPVFGTTKYAQKFQGRVTITADESTSTAYMELSSLRSEDTAVYYCASSAVGWFDPWGQGTLVTVSS VL: DIQMTQSPSSLSASVGDRVTITCRASQDISRWLAWYQQKPGKAPKLLIYAASSLQSGVPSRFSGSGSGTDFTLTISSLQPEDFATYYCQQYDNFPLTFGGGTKLEIKR
> 30 fold	> 30 fold	Polypeptide No. 228 (scFv, V domains shown, scFv) VH: QVQLVQSGAEVKKPGASVKVSCKASGGTFSSHAISWVRQAPGQGLEWMGWINPGSGGTNYAQKFQGRVTMTRDTSTSTVYMELSSLRSEDTAVYYCAKDSYDFWSGYYIDYWGQGTLVTVSS VL: DIQMTQSPSSLSASVGDRVTITCRASQSIYTHLNWYQQKPGKAPKLLIYAASRLQTGVPSRFSGSGSGTDFTLTISSLQPEDFATYYCQQSYSFPFTFGPGTKVDIKR
> 30 fold	> 30 fold	Polypeptide No. 238 (scFv, V domains shown, scFv) VH: QVQLVQSGAEVKKPGASVKVSCKASGYTFTIYYMHWVRQAPGQGLEWMGIINPSGGSTVYAQTFQGRVTMTRDTSTSTVYMELSSLRSEDTAVYYCARGIGSKGAFDIWGQGTMVTVSS VL: not shown
> 30 fold	> 30 fold	Polypeptide No. 291 (scFv, V domains shown, scFv) VH: QVQLVQSGAEVKKPGASVKVSCKASGYTFTSYYMHWVRQAPGQGLEWMGIINPSGGSTVYAQTFQGRVTMTRDTSTSTVYMELSSLRSEDTAVYYCARGIGSKGAFDIWGQGTMVTVSS VL: not shown
10 to 30 fold	10 to 30 fold	Polypeptide No. 219 (scFv, V domains shown, scFv) VH: QVQLVQSGAEVKKPGASVKVSCKASGYTFTNYYMHWVRQAPGQGLEWMGIINPSSGSASYTQKLQGRVTMTRDTSTSTVYMELSSLRSEDTAVYYCARDRSTLVPLDYWGQGTLVTVSS VL: DIQMTQSPSSLSASVGDRVTITCRASQGIRSELSWYQQKPGKAPKLLIYKASSLESGVPSRFSGSGSGTDFTLTISSLQPEDFATYYCLQHNSYPLTFGGGTKVEIKR
> 30 fold	> 30 fold	Polypeptide No. 235 (scFv, V domains shown, scFv) VH: QVQLVQSGAEVKKPGASVKVSCKASGYTFTGYYMHWVRQAPGQGLEWMGIINPSGGSTSYAQKFQGRVTMTRDTSTSTVYMELSSLRSEDTAVYYCARDPGRLGELDYWGQGTLVTVSS VL: EIVMTQSPATLSVSPGERATLSCRASQSVSSNLAWYQQKPGQAPRLLIYGASTRATGIPARFSGSGSGTEFTLTISSLQSEDFAVYYCQQYGSSPLTFGGGTKVEIKR
2 to 10 fold	2 to 10 fold	Polypeptide No. 243 (scFv, V domains shown, scFv) VH: QVQLVQSGAEVKKPGSSVKVSCKASGGTFSSHAFNWVRQAPGQGLEWMGGISPMFGTPNYAQKFQGRVTITADESTSTAYMELSSLRSEDTAVYYCARAPDYGDDWYFDLWGRGTLVTVSS VL: EIVMTQSPATLSVSPGERATLSCRASQTLTGGLLAWYQQKPGQAPRLLIYDTSSRAAGIPARFSGSGSGTEFTLTISSLQSEDFAVYYCHHYGSSPYTFGQGTKVEIKR
> 30 fold	> 30 fold	Polypeptide No. 233 (scFv, V domains shown, scFv) VH: QVQLVQSGAEVKKPGASVKVSCKASGYTFTSYYLHWVRQAPGQGLEWIGVINPSGGSTTYAQRFQGRVTMTRDTSTSTVYMELSSLRSEDTAVYYCARGIGYGGYFDYWGQGTLVTVSS VL: DIVMTQSPLSLPVTPGEPASISCRSSQSLLHSNGYNYLDWYLQKPGQSPQLLIYAASSLQSGVPDRFSGSGSGTDFTLKISRVEAEDVGVYYCMQGLRTPHTFGGGTKVEIKR
2 to 10 fold	2 to 10 fold	Polypeptide No. 247 (scFv, V domains shown, scFv) VH: QVQLVQSGAEVKKPGASVKVSCKASGGTLMSYAISWVRQAPGQGLEWMGIINPRGGTTRYAQKFQGRVTMTRDTSTSTVYMELSSLRSEDTAVYYCARSEDSGYDYLDYWGQGTLVTVSS VL: EIVMTQSPATLSVSPGERATLSCRGSQSISGNYLAWYQQKPGQAPRLLIYDTSARAAGIPARFSGSGSGTEFTLTISSLQSEDFAVYYCQQYNSYPLTFGGGTKVEIKR
